According to article PMC4837482, “The complex binding mode of the peptide hormone H2 relaxin to its receptor RXFP1” (Nature Communications, 2016):
Positions count from the first letter of the chain named.

Experiments:
Assay in all cases: cAMP activity assay (pCRE β-galactosidase reporter), transfected HEK293T cells
Assay type in all cases: cell-based
RXFP1 T61A = target: T1, RXFP1 T61A (Homo sapiens, UniProt Q9HBX9, T83A); details: construct T61A, ±s.e.m.
T1 construct: cells expressing full-length RXFP1 and mutants; expressed in transfected cells; host or cells: HEK293T
T1 sequence (Q9HBX9 23-757 T83A limits assumed): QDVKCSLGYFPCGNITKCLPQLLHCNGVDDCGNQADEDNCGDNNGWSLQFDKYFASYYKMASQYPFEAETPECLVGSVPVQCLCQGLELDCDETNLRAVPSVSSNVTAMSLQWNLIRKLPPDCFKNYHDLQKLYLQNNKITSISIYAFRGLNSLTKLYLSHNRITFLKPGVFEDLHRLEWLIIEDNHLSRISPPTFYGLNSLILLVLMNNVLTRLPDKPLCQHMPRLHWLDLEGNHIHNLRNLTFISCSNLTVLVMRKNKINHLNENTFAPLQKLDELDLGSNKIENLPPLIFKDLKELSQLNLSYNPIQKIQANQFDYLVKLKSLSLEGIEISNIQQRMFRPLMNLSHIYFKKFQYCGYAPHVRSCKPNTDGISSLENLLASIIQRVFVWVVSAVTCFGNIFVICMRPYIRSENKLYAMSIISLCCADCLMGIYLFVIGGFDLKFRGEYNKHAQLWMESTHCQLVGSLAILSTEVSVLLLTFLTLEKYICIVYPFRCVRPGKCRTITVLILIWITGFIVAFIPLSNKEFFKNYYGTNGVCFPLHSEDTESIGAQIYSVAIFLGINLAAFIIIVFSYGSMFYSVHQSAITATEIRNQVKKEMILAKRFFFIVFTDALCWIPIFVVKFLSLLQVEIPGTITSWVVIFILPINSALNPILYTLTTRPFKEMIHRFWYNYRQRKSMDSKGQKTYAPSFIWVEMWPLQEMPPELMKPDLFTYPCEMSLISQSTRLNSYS
In short: (§1)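 HEK293T cells transfected with mutant RXFP1 and pCRE β-galactosidase reporter, stimulated with H2 relaxin in minimal media/1% DMSO. β-Galactosidase read with chlorophenol red-β-D-galactopyranoside at 570 nm; responses pooled from ≥3 triplicate experiments as % of 5 μM forskolin maximum.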

RXFP1 F66A = target: T2, RXFP1 F66A (Homo sapiens, UniProt Q9HBX9, F88A); details: construct F66A, ±s.e.m.
T2 construct: cells expressing full-length RXFP1 and mutants; expressed in transfected cells; host or cells: HEK293T
T2 sequence (Q9HBX9 23-757 F88A limits assumed): T1 sequence (Q9HBX9 23-757 T83A limits assumed) with A61T, F66A
In short: as §1

RXFP1 C40A^ins = target: T3, RXFP1 C40A^ins (Homo sapiens, UniProt Q9HBX9, INS62A); details: construct C40A^ins
T3 construct: cells expressing full-length RXFP1 and mutants; expressed in transfected cells; host or cells: HEK293T
T3 sequence (Q9HBX9 with tags, fused parts or gaps INS62A limits assumed): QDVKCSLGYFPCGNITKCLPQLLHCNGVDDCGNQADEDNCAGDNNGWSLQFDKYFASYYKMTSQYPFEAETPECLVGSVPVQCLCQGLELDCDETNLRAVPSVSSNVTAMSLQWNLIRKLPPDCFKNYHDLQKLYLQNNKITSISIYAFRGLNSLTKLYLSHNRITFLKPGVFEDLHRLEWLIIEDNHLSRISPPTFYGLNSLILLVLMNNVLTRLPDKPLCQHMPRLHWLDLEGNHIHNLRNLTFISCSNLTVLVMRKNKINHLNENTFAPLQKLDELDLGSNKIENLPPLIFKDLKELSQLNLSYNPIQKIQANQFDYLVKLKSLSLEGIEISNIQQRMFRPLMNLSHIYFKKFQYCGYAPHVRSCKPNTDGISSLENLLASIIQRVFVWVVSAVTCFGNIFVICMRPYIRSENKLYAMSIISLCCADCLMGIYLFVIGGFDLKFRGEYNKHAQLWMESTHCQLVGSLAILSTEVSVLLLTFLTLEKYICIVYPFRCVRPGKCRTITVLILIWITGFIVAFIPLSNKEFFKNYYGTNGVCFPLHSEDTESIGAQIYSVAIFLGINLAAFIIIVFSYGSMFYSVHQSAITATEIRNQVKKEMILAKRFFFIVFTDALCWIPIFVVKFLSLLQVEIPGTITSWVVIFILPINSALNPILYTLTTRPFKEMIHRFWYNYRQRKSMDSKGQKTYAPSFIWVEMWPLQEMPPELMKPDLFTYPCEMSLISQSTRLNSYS
In short: as §1

[1] = percentage of maximum response to 5 μM Forskolin

Q: What does the source list for “H2 relaxin: two-chain 6-kDa peptide hormone structurally related to insulin; recombinant human gene-2 H2 relaxin provided by Corthera”?
A: H2 relaxin pEC50 (RXFP1 T61A; cAMP reporter): 11.15±0.17 (5); H2 relaxin Emax (RXFP1 T61A; [1]): 142.58±15.97 (4) %; H2 relaxin pEC50 (RXFP1 F66A; cAMP reporter): 11.20±0.08; H2 relaxin Emax (RXFP1 F66A; [1]): 88.29±3.52 (3) %; H2 relaxin pEC50 (RXFP1 C40A^ins; cAMP reporter): No activity; H2 relaxin Emax (RXFP1 C40A^ins; [1]): No activity
